Target: His6-SUMO tagged H3.3 (human, UniProt P84243 1-136)
Assay: native gel or EMSA

B1: human histone H3.Y (natural protein)
chain: not shown
- binding result: binds

Reference: publication PMC5291245 (Nucleic Acids Research, 2016)
